# Patent US20140322218A1 (Amgen, published 2014)
# T1: ckCDH19(1-43)::FLAG::ckCDH19(44-141)::huCDH19(142-249)::ckCDH19(250-776), on 293T cells (human/chicken chimera)
# T1 construct: Entry holds leader (1-43), Flag tag and CDH19 part; leader left out; also called Hu EC2 (chicken backbone)
# T1 chain: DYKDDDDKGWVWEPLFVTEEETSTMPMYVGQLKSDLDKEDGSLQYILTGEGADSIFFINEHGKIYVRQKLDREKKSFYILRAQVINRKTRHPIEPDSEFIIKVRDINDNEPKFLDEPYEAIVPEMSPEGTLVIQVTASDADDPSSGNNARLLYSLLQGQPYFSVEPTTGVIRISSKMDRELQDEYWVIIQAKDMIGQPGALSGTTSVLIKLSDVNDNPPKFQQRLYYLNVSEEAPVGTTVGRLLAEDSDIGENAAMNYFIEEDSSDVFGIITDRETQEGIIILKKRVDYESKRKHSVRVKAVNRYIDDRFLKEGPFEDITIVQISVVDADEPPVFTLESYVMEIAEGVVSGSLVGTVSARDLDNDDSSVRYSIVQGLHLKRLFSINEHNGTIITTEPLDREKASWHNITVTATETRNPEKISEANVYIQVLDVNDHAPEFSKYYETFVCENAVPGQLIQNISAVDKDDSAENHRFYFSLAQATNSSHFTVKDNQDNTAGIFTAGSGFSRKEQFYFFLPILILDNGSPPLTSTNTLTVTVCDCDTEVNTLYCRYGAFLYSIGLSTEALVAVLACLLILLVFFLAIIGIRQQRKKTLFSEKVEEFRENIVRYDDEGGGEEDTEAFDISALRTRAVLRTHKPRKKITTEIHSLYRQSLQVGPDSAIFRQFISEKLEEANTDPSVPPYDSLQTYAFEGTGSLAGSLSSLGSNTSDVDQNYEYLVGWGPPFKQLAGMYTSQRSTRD
# T2: ckCDH19(1-43)::FLAG::ckCDH19(44-776), on 293T cells (chicken)
# T2 construct: Entry holds leader (1-43), Flag tag and CDH19 part; leader left out; also called Ck EC1-5
# T2 chain: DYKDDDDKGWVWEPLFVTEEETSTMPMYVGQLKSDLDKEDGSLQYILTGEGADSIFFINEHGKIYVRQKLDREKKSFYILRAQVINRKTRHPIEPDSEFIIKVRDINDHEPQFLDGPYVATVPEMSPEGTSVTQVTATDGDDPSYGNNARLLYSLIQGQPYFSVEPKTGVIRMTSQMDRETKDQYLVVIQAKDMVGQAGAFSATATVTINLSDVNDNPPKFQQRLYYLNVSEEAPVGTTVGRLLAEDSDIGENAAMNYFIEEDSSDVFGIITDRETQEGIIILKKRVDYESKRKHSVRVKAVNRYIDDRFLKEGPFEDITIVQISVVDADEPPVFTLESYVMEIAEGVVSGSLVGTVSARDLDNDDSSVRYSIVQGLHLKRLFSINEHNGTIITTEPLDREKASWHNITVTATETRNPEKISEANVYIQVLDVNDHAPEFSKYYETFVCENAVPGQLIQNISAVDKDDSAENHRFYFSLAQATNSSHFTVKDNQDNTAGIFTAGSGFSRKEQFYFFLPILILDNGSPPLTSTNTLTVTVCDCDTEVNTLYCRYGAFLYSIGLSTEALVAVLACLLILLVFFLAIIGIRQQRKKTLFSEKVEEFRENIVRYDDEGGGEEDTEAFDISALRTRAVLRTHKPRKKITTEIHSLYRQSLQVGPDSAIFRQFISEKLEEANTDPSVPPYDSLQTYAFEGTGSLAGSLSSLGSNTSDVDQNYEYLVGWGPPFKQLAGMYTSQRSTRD
# T3: (1-43)::FLAG::ckCDH19(44-468)::huCDH19(464-772), on 293T cells (human/chicken chimera)
# T3 construct: Entry holds leader (1-43), Flag tag and CDH19 part; leader left out; also called Hu EC5 (chicken backbone)
# T3 chain: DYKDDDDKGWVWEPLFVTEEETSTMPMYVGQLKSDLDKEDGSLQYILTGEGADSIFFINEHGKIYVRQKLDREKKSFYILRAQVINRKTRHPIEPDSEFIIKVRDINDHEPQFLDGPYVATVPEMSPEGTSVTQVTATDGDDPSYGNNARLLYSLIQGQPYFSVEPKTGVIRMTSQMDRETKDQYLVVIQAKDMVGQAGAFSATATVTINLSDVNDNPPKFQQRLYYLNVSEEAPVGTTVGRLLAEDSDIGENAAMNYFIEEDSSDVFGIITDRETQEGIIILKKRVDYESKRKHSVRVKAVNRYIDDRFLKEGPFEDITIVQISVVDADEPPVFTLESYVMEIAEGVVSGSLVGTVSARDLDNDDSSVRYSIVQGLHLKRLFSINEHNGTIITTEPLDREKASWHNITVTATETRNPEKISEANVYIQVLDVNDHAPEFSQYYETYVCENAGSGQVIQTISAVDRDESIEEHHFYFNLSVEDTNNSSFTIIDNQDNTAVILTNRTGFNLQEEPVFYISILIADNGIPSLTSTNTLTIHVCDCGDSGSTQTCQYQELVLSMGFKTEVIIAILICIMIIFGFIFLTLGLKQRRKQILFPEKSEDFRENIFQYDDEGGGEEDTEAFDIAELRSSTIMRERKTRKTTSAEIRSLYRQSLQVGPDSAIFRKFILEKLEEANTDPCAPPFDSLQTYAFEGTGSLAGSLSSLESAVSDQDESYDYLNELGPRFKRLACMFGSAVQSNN
# T4: Cyno Cadherin-19 (cynomolgus monkey (Macaca fascicularis), UniProt Q9H159 44-772 (human entry))
# T4 construct: also called cyno CDH19; cynomologous CDH-19
# T4 chain: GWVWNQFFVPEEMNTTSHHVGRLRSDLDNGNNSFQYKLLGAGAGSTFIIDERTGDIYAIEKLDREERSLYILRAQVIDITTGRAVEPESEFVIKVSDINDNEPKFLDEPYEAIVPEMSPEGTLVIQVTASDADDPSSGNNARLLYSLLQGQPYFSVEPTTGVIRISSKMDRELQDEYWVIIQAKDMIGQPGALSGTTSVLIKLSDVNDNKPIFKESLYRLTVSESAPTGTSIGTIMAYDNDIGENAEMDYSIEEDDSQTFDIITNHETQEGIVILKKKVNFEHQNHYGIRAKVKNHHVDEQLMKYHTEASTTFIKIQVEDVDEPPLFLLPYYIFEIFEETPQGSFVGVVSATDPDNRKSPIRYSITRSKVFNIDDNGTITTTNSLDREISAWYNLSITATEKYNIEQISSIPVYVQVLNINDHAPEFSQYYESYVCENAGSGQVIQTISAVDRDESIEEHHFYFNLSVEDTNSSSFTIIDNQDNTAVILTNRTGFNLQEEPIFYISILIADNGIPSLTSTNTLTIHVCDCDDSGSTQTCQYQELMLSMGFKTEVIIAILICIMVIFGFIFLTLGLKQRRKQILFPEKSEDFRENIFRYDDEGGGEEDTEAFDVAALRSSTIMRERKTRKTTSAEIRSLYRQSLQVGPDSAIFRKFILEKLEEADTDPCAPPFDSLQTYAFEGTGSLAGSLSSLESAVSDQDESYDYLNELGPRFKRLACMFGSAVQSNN
# What was measured:
# [1] = biological target: T1, ckCDH19(1-43)::FLAG::ckCDH19(44-141)::hu …; assay: FACS, transfected 293T
# Method: (§1) The following binding assay was completed in presence of 2 mM CaCl2. […] Cells were then washed one time and the amount of cell associated Alexa647-labelled Ab was quantitated by flow cytometry. The experiments included mock transfected controls.
# [2] = biological target: T2, ckCDH19(1-43)::FLAG::ckCDH19(44-776), …; assay: FACS, transfected 293T
# Method: as §1
# [3] = biological target: T3, (1-43)::FLAG::ckCDH19(44-468)::huCDH19(4 …); assay: FACS, transfected 293T
# Method: as §1
# [4] = biological target: T5, huCDH19(1-43)::FLAG::hu(44-141)::ckCDH19(142-776), on 293T cells (human/chicken chimera); assay: FACS, transfected 293T;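 also: antibody binding to chimera-expressing cells with 2 mM CaCl2 present, cell-bound Alexa647-labelled antibody read by flow cytometry, mock-transfected cells serving as control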
# T5 construct: Entry holds leader (1-43), Flag tag and CDH19 part; leader left out; also called Hu EC1 (chicken backbone)
# Method: as §1
# [5] = biological target: T6, huCDH19(44-772), Flag-tagged, on 293T cells (human, UniProt Q9H159 44-772); assay: FACS, transfected 293T
# T6 construct: Expressed with native leader (1-43) followed by a Flag tag; leader left out; also called Hu EC1-5
# From the text: (§2) The experiment included assaying the anti-CDH19 antibodies against mouse Cadherin19 to determine suitability for binning on these human/mouse chimeras.
# [6] = biological target: T7, huCDH19(44-249)::muCDH19(248-770), Flag-tagged, on 293T cells (human/mouse chimera); assay: FACS, transfected 293T
# T7 construct: also called Hu EC1-2; C137896
# From the text: as §2
# [7] = biological target: T8, huCDH19(44-141)::muCDH19(140-770), Flag-tagged, on 293T cells (human/mouse chimera); assay: FACS, transfected 293T
# T8 construct: also called Hu EC1
# From the text: as §2
# Human Cadherin-19 = biological target: T9, Human Cadherin-19 (human, UniProt Q9H159 44-772); assay: FACS, endogenous CDH19 on CHL-1/Colo699
# T9 construct: Residues 1-43 are named as the native leader in the construct designations and are left out; also called human CDH19; huCDH19
# Method: FACS binding assays were performed to evaluate the binding of the anti-Cadherin-19 receptor specific antibodies to endogenous Cadherin-19 receptor expressed on the CHL-1 tumor cell lines.
# FACs assays were performed by incubating hybridoma supernatants with 10,000 to 25,000 cells in PBS/2% Fetal bovine serum/2 mM Calcium Chloride at 4° C. for one hour followed by two washes with PBS/2% Fetal bovine serum/2 mM Calcium Chloride. Cells were then treated with florochrome-labeled secondary antibodies at 4° C. followed by one wash. The cells were resuspended in 50 μl of PBS/2% FBS and antibody binding was analyzed using a FACSCalibur™ instrument.
# Cyno Cadherin-19 = biological target: T4, Cyno Cadherin-19; assay: FACS, recombinant cyno CDH19
Binder,binding result [5],binding result [6],binding result [7],further results
"hu anti-<huCDH19> 17H8.2 VH::huIgG1z / 17H8.2 VL::huKLC (Ab ID 13874) (antibody, V domains shown, also called 23B6; 28D10) VH: QVQLQESGPGLVKPSETLSLTCTVSGGSINSYYWSWIRQPPGKGLEWIGYIYYIGSTNYNPSLKSRVTISVDTSKNQFSLKLSSVTAADTALYYCARDSRYRSGWYDAFDIWGQGTMVTVSS VL: DIVLTQSPGTLSLSPGERATLSCRASQSVAGSYLAWYQQKPGQAPRLLISGASSRATGIPDRFSGSGSGTDFTLTISRLEPEDFAVYYCQQYGKSPITFGQGTRLEMKG",,,,binding result [1]: no binding (tested: 5 ug/ml); binding result [2]: no binding (tested: 5 ug/ml); binding result [3]: no binding (tested: 5 ug/ml); binding result [4]: binds
"hu anti-<huCDH19> 4A9 VH::huIgG1z / 4A9 (1-239)(F47L) VL::huLLC-C1 (Ab ID 14056) (antibody, V domains shown, Engineered variant of 4A9) VH: QVQLQESGPGLVKPSETLSLTCTVSGGSISGYYWSWIRQPPGKGLEWFAYFSYSGSTNYNPSLKSRVTLSVDTSKNQFSLKLSSVTAADTAVYYCARNWAFHFDFWGQGTLVTVSS VL: QSVLTQPPSVSGAPGQRVTISCTGSSSNIGTGYAVHWYQQLPGTAPKLLIYGNNNRPSGVPDRFSGSKSGTSASLAITGLQAEDEADYYCQSYDSRLSGWVFGGGTKLTVLG",binds,binds,binds,
"hu anti-<huCDH19> 20D3.1 VH::huIgG1z / 20D3.1 VL::huLLC-C2 (Ab ID 13878) (antibody, V domains shown, also called 16H2; 23E7) VH: QVQLVQSGAEVKKPGASVKVSCKVSGYTFTSYFIHWVRQAPGQGLEWMGIINPISVSTSYAQKFQGRVTMTRDTSTSTVFMELSSLRSEDTAVYYCARGGIQLWLHFDYWGQGTLVTVSS VL: not shown",,,,binding result (Human Cadherin-19): binds; binding result (Cyno Cadherin-19): binds
"hu anti-<huCDH19> 25F8.1 VH::huIgG1z / 25F8.1 (1-235)(K45Q,S102A) VL::huLLC-C2 (Ab ID 14094) (antibody, V domains shown, Engineered variant of 25F8) VH: QVQLVQSGAEVKKPGASVKVSCKASGYTFTSYYIHWVRQAPGQGLEWMGIINPSGGSTRYAQKFQGRVTMTRDTSTSTVFMELSSLRSEDTAVYYCARGGIQLWLHFDYWGQGTLVTVSS VL: not shown",binds,binds,binds,
"hu anti-<huCDH19> 19B5.1 VH::huIgG1z / 19B5.1 VL::huLLC-C2 (Ab ID 13885) (antibody, V domains shown) VH: QVQLVQSGAEVKKPGASVKVSCKVSGYTFTSYFIHWVRQAPGQGLEWMGIINPISVSTSYAQKFQGRVTMTRDTSTSTVFMELSSLRSEDTAVYYCARGGIQLWLHLDYWGQGTLVTVSS VL: QSALTQPPSTTGTPGQRVTISCSGSRSNIGSNFVNWYKQLPGTAPKVLIYTNNQRPSGVPDRFSGSKSGTSASLAISGLQSEDESDYYCATWDDSMNGWVFGGGTKLTVLG",,,,binding result (Human Cadherin-19): binds; binding result (Cyno Cadherin-19): binds

# The next lines start with results.
binding result [5],binding result [6],binding result [7],Binder,further results
binds,,,"hu anti-<huCDH19> 4B10 (1-471)(R17G,D61E,D72E) VH::huIgG1z / 4B10 (1-236)(H45Q,A90T) VL::huKLC (Ab ID 14055) (antibody, V domains shown, Engineered variant of 4B10) VH: QVQLVESGGGVVQPGGSLRLSCAASGFTFSSYDMHWVRQAPGKGLEWVAVISYEGTNEYYAESVKGRFTISRDTSKNTLYLQMNSLRAEDTAVYYCARERYFDWSFDYWGQGTLVSVSS VL: EIVLTQSPGTLSLSPGERATLSCRASQSVSNTYLAWYQQRPGQAPRLLIYGASSRATGIPDRFSGSGSGTDFTLTISSLEPEDFAVYYCQQYSNSWTFGQGTKVEIKR",
binds,binds,binds,"hu anti-<huCDH19> 4A9 (1-468)(F55I,A56G) VH::huIgG1z / 4A9 (1-239)(F47L) VL::huLLC-C1 (Ab ID 14057) (antibody, V domains shown, Engineered variant of 4A9) VH: QVQLQESGPGLVKPSETLSLTCTVSGGSISGYYWSWIRQPPGKGLEWIGYFSYSGSTNYNPSLKSRVTLSVDTSKNQFSLKLSSVTAADTAVYYCARNWAFHFDFWGQGTLVTVSS VL: QSVLTQPPSVSGAPGQRVTISCTGSSSNIGTGYAVHWYQQLPGTAPKLLIYGNNNRPSGVPDRFSGSKSGTSASLAITGLQAEDEADYYCQSYDSRLSGWVFGGGTKLTVLG",
binds,binds,binds,"hu anti-<huCDH19> 26D1.1 (1-469)(R27G,G82R) VH::huIgG1z / 26D1.1 (1-235)(H1Q,S7P) VL::huLLC-C2 (Ab ID 14088) (antibody, V domains shown, Engineered variant of 26D1) VH: QVQLVQSGAEVKKPGASVKVSCKASGYTFTSYYMSWVRQAPGQGLEWMGIIHPSGGDTTYAQKFQGRVTMTRDTSTSTVYMELSSLRSEDTAVYYCARGGIKLWLHFDYWGQGTLVTVSS VL: not shown",
